# Columns and labels:
# [1] = molecular target: human AMH of serum samples (human) (UniProt P03971); assay: VIDAS sandwich, detection AA011 conjugate 500 ng/ml, AMH 8.7 ng/ml
# [2] = molecular target: human AMH of serum samples (human) (UniProt P03971); assay: VIDAS sandwich, detection AA011 conjugate 500 ng/ml, AMH 0.11 ng/ml
# [3] = molecular target: human AMH of serum samples (human) (UniProt P03971); assay: VIDAS sandwich, detection AA011 conjugate 500 ng/ml, AMH 0.055 ng/ml
# [4] = molecular target: human AMH of serum samples (human) (UniProt P03971); assay: VIDAS sandwich, detection AA011 conjugate 500 ng/ml, AMH 4 ng/ml
# [5] = molecular target: human AMH of serum samples (human) (UniProt P03971); assay: VIDAS sandwich, detection AA011 conjugate 500 ng/ml, AMH 6.3 ng/ml
# [6] = molecular target: human AMH of serum samples (human) (UniProt P03971); assay: VIDAS sandwich, detection AA011 conjugate 500 ng/ml, AMH 0.9 ng/ml
# [7] = molecular target: human AMH of serum samples (human) (UniProt P03971); assay: VIDAS sandwich, detection AA011 conjugate 500 ng/ml, AMH 0.275 ng/ml
# [8] = molecular target: human AMH of serum samples (human) (UniProt P03971); assay: VIDAS sandwich, detection AA011 conjugate 500 ng/ml, AMH 11 ng/ml
# [9] = molecular target: human AMH of serum samples (human) (UniProt P03971); assay: VIDAS sandwich, detection AA011 conjugate 500 ng/ml, AMH 2.1 ng/ml
# Sequence of UniProt P03971 (P03971 25-560 limits assumed): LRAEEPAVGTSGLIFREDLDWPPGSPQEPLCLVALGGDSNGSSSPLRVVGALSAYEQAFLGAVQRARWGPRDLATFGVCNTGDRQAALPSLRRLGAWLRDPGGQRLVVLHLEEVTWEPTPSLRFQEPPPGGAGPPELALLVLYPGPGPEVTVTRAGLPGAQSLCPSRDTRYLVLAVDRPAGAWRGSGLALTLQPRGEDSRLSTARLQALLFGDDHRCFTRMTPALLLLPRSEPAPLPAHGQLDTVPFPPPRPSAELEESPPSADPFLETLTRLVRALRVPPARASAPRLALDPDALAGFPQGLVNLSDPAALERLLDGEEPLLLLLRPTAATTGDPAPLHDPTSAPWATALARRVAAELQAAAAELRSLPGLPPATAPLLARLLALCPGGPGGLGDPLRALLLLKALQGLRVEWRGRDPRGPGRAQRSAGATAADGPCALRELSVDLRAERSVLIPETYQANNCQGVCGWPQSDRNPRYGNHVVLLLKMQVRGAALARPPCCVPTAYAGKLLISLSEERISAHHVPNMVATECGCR
substance,measurement,setting,value
AA012 commercial anti-AMH antibody (AnshLabs),S/N (VIDAS RFV/RFV0),[1],107
same,VIDAS RFV Signal,[1],4810 RFV
same,S/N (VIDAS RFV/RFV0),[2],3
same,VIDAS RFV Signal,[2],113 RFV
same,S/N (VIDAS RFV/RFV0),[3],2
same,VIDAS RFV Signal,[3],81 RFV
same,S/N (VIDAS RFV/RFV0),[4],65
same,VIDAS RFV Signal,[4],2940 RFV
same,S/N (VIDAS RFV/RFV0),[5],87
same,VIDAS RFV Signal,[5],3920 RFV
same,S/N (VIDAS RFV/RFV0),[6],16
same,VIDAS RFV Signal,[6],735 RFV
same,S/N (VIDAS RFV/RFV0),[7],5
same,VIDAS RFV Signal,[7],209 RFV
same,S/N (VIDAS RFV/RFV0),[8],120
same,VIDAS RFV Signal,[8],5390 RFV
same,S/N (VIDAS RFV/RFV0),[9],36
same,VIDAS RFV Signal,[9],1600 RFV

# Source: patent US20190211096A1
